Laboratory results as given in patent US6407207B1, “Cloned and expressed human bradykinin BK-2 receptor” (Merck & Co., Inc., priority 1992, dated 2002).
Where a SMILES comes first, the peptide text is derived from it. Where no end group is shown, it is not given here. [ ]: non-standard residue; d: D form. Hyp = O=C(O)[C@@H]1C[C@@H](O)CN1; 2Thi = N[C@@H](Cc1cccs1)C(=O)O

Key:
human BK-2 receptor = target: T1, human BK-2 receptor (Homo sapiens, UniProt P30411); assay: Competition binding against 100 pM [3H]BK, membranes of COS-7 cells expressing the cloned receptor; conditions: for IC50: competition with [3H]BK, read-out: IC50, displacement of [3H]BK binding; for Inhibition of BK binding: at a concentration of 10 uM
T1 construct: permitted the construction of a cDNA clone encoding a full length BK-2 receptor from the cleavage fragments of the two clones; expressed in transfected cells; host or cells: COS-7 cells, vector pcDNA I-Neo, membranes
T1 sequence (P30411 1-364 isoform P30411-2): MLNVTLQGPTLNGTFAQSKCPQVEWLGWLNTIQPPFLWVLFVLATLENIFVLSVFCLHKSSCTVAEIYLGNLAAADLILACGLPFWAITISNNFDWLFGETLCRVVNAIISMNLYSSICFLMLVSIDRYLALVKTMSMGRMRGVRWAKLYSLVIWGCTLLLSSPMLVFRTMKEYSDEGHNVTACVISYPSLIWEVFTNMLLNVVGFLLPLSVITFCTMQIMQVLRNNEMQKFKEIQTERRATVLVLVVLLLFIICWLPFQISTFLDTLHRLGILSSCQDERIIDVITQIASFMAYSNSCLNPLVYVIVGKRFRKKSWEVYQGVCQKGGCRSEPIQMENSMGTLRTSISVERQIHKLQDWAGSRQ
Protocol: (§1) Cells are then harvested after 72 hours and the membranes containing the expressed receptor protein are prepared by scraping the cells in phosphate buffered saline solution and centrifuging for ten minutes at 500×g. The cell pellet is then resuspended and homogenized with a Polytron in 20 mM N-tris(hydroxymethyl)methyl-2-aminoethane sulfonic acid (TES, pH 6.8 at room temperature) buffer containing 1 mM 1,10 phenanthroline. The homogenate is then centrifuged for ten minutes at […]. The final membrane pellet is resuspended in assay buffer (TES plus 0.1% protease free bovine serum albumin, 5 uM MK-422 (enalaprilat; Gross et al., J. Pharmacol. and Exper. Ther. 216, 552-557 (1981)) and 140 ug/ml bacitracin using a motor-driven teflon-glass tissue homogenizer. Protein determination are performed by the method of Bradford using bovine IgG as the standard. See Bradford, M. A. Anal. Biochem. 72, 248-254 (1976).
(§2) Binding assays are then performed to determine receptor antagonist or agonist interaction. The assays utilized in the instant invention follow the method of Manning et al., J. Pharmacol. Exp. Ther., 237, 504-512 (1986). […] (BRANDEL, Gaithersburg, Md.). The tubes are then rinsed two times with 4 ml ice-cold 10 uM TES and the filter bound radioactivity is quantitated by liquid scintillation counting. […] The competition and saturation experiments are analyzed using the EBDA program of McPherson. See McPherson, G. A. J Pharmacol. Methods 14, 213-218 (1985).
as §1, with “Cells were” for “Cells are”, “protein were” for “protein are”, “pellet was” for “pellet is”, “homogenate was” for “homogenate is”, “al., 1981)” for “al., J. Pharmacol. and Exper. Ther. 216, 552-557 (1981))”, “determination was” for “determination are”
as §2, with “assays were” for “assays are”, “tubes were” for “tubes are then”, “[…]” for “uM TES”, “radioactivity was” for “radioactivity is”, “experiments were” for “experiments are”

rat vas deferens = conditions: cited from earlier work
B2 receptors = target: T2, B2 receptors (Homo sapiens, UniProt P30411); conditions: cited from earlier work
T2 sequence (P30411 1-391): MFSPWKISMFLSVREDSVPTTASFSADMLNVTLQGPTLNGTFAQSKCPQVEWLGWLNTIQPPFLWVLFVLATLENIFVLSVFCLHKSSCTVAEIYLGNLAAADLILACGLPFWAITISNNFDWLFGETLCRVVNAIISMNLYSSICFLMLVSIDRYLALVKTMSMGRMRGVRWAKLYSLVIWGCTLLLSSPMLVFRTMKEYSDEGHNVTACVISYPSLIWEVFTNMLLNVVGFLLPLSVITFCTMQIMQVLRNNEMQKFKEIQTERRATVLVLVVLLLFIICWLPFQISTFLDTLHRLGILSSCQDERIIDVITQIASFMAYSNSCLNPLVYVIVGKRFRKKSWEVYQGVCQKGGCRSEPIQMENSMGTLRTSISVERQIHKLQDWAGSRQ

[1] = target: T3, human bradykinin BK-2 receptor protein (human, UniProt P30411 28-391); assay: competition binding with 100 pM [3H]BK, membranes of COS-7 cells expressing the receptor
T3 construct: also called human BK-2 bradykinin receptor; cloned BK receptor
T3 sequence: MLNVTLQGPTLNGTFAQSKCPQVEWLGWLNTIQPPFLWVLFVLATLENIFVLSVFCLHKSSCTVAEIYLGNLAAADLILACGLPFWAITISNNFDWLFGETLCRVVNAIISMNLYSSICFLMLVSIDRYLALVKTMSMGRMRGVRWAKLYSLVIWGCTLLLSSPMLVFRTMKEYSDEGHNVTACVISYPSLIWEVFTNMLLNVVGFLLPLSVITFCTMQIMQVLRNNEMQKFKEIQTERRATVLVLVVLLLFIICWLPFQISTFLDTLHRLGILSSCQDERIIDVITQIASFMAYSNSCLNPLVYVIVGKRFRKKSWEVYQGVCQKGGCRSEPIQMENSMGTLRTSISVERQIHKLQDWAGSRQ
Protocol: as §2, with “*J.” for “J.”, “Ther.*,” for “Ther.,”, “504–512” for “504-512”, “*J” for “J”, “Methods*” for “Methods”, “213–218” for “213-218”
(§3) Binding assays were then performed to determine receptor antagonist or agonist interaction. The assays utilized in the instant invention follow the method of Manning et al., *J. Pharmacol. Exp. Ther.*, 237, 504–512 (1986). […] (BRANDEL, Gaithersburg, Md.). The tubes were rinsed two times with 4 ml ice-cold 10 uM TEX and the filter bound radioactivity was quantitated by liquid scintillation counting. […] The competition and saturation experiments were analyzed using the EBDA program of McPherson. See McPherson, G. A. *J Pharmacol. Methods* 14, 213–218 (1985).

[2] = target: T4, human bradykinin BK-2 receptor protein (human), P30411; assay: displacement of 100 pM [3H]BK, cloned human BK-2 receptor in membranes
T4 chain: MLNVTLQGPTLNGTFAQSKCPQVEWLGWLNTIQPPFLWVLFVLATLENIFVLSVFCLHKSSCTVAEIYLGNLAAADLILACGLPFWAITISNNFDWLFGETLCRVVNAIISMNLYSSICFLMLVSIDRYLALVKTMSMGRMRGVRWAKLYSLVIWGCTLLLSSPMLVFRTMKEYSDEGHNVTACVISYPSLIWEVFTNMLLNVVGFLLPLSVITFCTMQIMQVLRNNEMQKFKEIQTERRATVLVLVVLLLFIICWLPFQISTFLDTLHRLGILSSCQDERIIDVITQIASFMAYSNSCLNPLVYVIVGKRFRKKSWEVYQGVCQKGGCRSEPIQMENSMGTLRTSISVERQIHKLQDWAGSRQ

[3] = target: T3, human bradykinin BK-2 receptor protein; assay: competition binding with 100 pM [3H]BK, cloned human BK-2 receptor in membranes
Protocol: as §3, with “assays are” for “assays were”, “tubes are then” for “tubes were”, “[…]” for “uM TEX”, “radioactivity is” for “radioactivity was”, “experiments are” for “experiments were”
as §3

Molecule: N=C(N)NCCC[C@H](NC(=O)[C@H](Cc1cccs1)NC(=O)[C@@H](Cc1ccccc1)NC(=O)[C@H](CO)NC(=O)[C@H](Cc1cccs1)NC(=O)CNC(=O)[C@@H]1CCCN1C(=O)[C@@H]1CCCN1C(=O)[C@@H](N)CCCNC(=N)N)C(=O)O [[Thi^5,8,D-Phe^7]BK] (H-RPPG[2Thi]S[dF][2Thi]R-OH; N-terminus and C-terminus assumed)
- IC50 (human BK-2 receptor): 180 nM

Molecule: Des-Arg^9BK (RPPGFSPF) [BK-1 agonist, BK metabolite]
- Pre- or postsynaptic BK like responses (rat vas deferens): inactive
- Inhibition of BK binding (human BK-2 receptor): 18%
- Activity at B2 receptors (B2 receptors): inactive

Molecule: CC[C@H](C)[C@@H]1NC(=O)[C@H](Cc2ccc(O)cc2)NC(=O)[C@@H](N)CSSC[C@@H](C(=O)N2CCC[C@H]2C(=O)N[C@@H](CC(C)C)C(=O)NCC(N)=O)NC(=O)[C@H](CC(N)=O)NC(=O)[C@H](CCC(N)=O)NC1=O [oxytocin]
- Competition for BK binding (human BK-2 receptor): No competition

Molecule: N=C(N)NCCC[C@@H](N)C(=O)N[C@@H](CCCNC(=N)N)C(=O)N1C[C@H](O)C[C@H]1C(=O)N1C[C@H](O)C[C@H]1C(=O)NCC(=O)N[C@@H](Cc1cccs1)C(=O)N[C@@H](CO)C(=O)N[C@H](Cc1ccccc1)C(=O)N[C@@H](Cc1cccs1)C(=O)N[C@@H](CCCNC(=N)N)C(=O)O [D-Arg^0-[Hyp^2,3,-Thi^5,8D-Phe^7]BK] (H-[dR]R[Hyp][Hyp]G[2Thi]S[dF][2Thi]R-OH; N-terminus and C-terminus assumed)
- IC50 (human BK-2 receptor): 27 nM

Molecule: angiotensin II (DRVYIHPF) [peptide]
- Competition for BK binding (human BK-2 receptor): No competition

Molecule: angiotensin I (DRVYIHPFHL) [peptide]
- Competition for BK binding (human BK-2 receptor): No competition

Molecule: CC[C@H](C)[C@H](NC(=O)[C@H](CC(=O)O)NC(=O)[C@H](CC(C)C)NC(=O)[C@H](Cc1c[nH]cn1)NC(=O)[C@@H]1CSSC[C@H](N)C(=O)N[C@@H](CO)C(=O)N[C@H]2CSSC[C@H](NC(=O)[C@H](CCC(=O)O)NC(=O)[C@H](CCCCN)NC(=O)[C@H](CC(=O)O)NC(=O)[C@H](CCSC)NC(=O)[C@H](CC(C)C)NC(=O)[C@H](CO)NC(=O)[C@H](CO)NC2=O)C(=O)N[C@@H](C(C)C)C(=O)N[C@@H](Cc2ccc(O)cc2)C(=O)N[C@@H](Cc2ccccc2)C(=O)N1)C(=O)N[C@H](C(=O)N[C@@H](Cc1c[nH]c2ccccc12)C(=O)O)[C@@H](C)CC [endothelin]
- Competition for BK binding (human BK-2 receptor): No competition

Molecule: des-Arg^9-[Leu^8]-BK [Des-Arg^9, LeuBK]
- Pre- or postsynaptic BK like responses (rat vas deferens): inactive
- Antagonism of BK responses in the vas deferens (rat vas deferens; incubation at high concentrations): failed to antagonize
- Inhibition of BK binding (human BK-2 receptor): 11%

Molecule: met-lys-BK
- Specificity of binding of BK analogues (rank order) (human BK-2 receptor; competition binding, data not shown): BK>lys-BK>met-lys-BK

Molecule: CYIQNCPLG (peptide, UniProt P01178 20-28, looked up) [oxytocin]
- binding result [1]: no binding

Molecule: [dR]R[Hyp][Hyp]G[2Thi]S[dF][2Thi]R [D-Arg^0-[Hyp^2,3,-Thi^5,8D-Phe^7]BK]
- IC50 [2]: 27 nM

B1: Hoe 140, D-Arg^0-[Hyp^3,Thi^5,D-Tic^7,Oic^8]BK (peptide)
peptide: RRPPGFSPFR
modifications: numbered on bradykinin: D-Arg at 0; Hyp at 3; Thi at 5; D-Tic at 7; Oic at 8
notes: Synthetic BK-2 antagonist with non-natural residues
- IC50 [3]: 0.065 nM

B2: met-lys-BK (peptide)
peptide: MKRPPGFSPFR
notes: It is built from its name (Met-Lys + bradykinin)
- binding result [1]: binds
